# Assays:
# purified protein [1] = substrate: O=C(O)C(=O)C[C@H](O)[C@@H](O)C(=O)O; test: purified protein; type: biochemical, Polaromonas naphthalenivorans; conditions: 2.5 mM KPi pH 7.0, 2 mM MgCl2, 25 μg/ml BTB, 37 °C
# purified protein [2] = substrate: O=C(O)C(=O)C[C@H](O)[C@@H](O)C(=O)O; test: purified protein; type: biochemical, Acinetobacter baylyi; conditions: 2.5 mM KPi pH 7.0, 2 mM MgCl2, 25 μg/ml BTB, 37 °C
Protein,Km (purified protein [1]),Vmax (purified protein [1]),kcat (purified protein [1]),kcat/Km (purified protein [1]),Km (purified protein [2]),Vmax (purified protein [2]),kcat (purified protein [2]),kcat/Km (purified protein [2])
"KdgDPn (Polaromonas naphthalenivorans CJ2) (protein, full-length, C-terminal His-tag (CH), codon-optimized gene, E. coli ArcticExpress(DE3), IMAC purified) MNPQDLKTIVSSGLLSFPVTDFDEQGDFRPKTYIERLEWLAPYGATALFAAGGTGEFFSLTGDEYPLIIKTAVNTCAGKVPIIAGVGGPTRFAIACAQEAERLGAHGILLLPHYLMEAGQEGLIAHVEAVCKSVKFGVIVYNRNVCKLTPESLAILADRCPNLIGFKDGVGNIETMSSIFMKMGDRFSYLGGLPTAEVYAAAYKALGTPVYSSAVFNFIPKTAMDFYHAVASDDLATQHRLLRDFFMPYLALRNKNPGYAVSIVKAGATIVGHDAGPVRPPLTDLKPAEMEELAVLIKSLGPQ",1100 ± 100 µM,3 µmol/min/mg,1.7 ± 0.01 s⁻¹,1500 M⁻¹ s⁻¹,–,–,–,–
"KdgDAb (Acinetobacter baylyi ADP1) (protein, full-length, N-terminal His-tag (NH), codon-optimized gene, E. coli BL21(DE3), IMAC purified) MDALELKNIVSDGLLSFPVTDFDQNGDFNAASYAKRLEWLAPYGASALFAAGGTGEFFSLTGDEYSDVIKTAVDACKGSVPIIAGAGGPTRQAILQAQEAERLGAHGILLMPHYLTEASQEGLVEHVKQVCNAVNFGVIFYNRSVSKLNVDSLQQLVESCPNLIGFKDSSGQIDMMTEVVQTLGDRLSYLGGLPTAEIFAAPYKALGSPVYSSAVFNFIPKTAMEFYNALRNDDFATTQRLIRDFFLPLIKIRNRKSGYAVSMVKAGAKIVGHDAGPVRPPLSDLTPQDYEDLAALIATLGPQ",–,–,–,–,1000 ± 100 µM,8 µmol/min/mg,4.5 ± 0.02 s⁻¹,4500 M⁻¹ s⁻¹

# — PMC5114784, “Identification and characterization of two new 5-keto-4-deoxy-D-Glucarate Dehydratases/Decarboxylases” (BMC Biotechnology, 2016)
